Measured values taken from article PMC3775653 (Journal of the American Chemical Society, 2013).

Target: the molecule itself
Test: AUC

B1: AmpDh2 (zinc protease of Pseudomonas aeruginosa), recombinant, without the 17-amino-acid N-terminal membrane anchor (enzyme)
chain: SSGPRLNTDYTSANQDSRVQFIVLHYTSTDLPHSLGILTHGGVSAHYLIGDDEPATVYRLVDENRRAWHAGVSEWQGRTWLNATSIGIEIVNQGYRDTPQGRVWYPFSEAQIQALIPLLKDIAKRHGITPDRIIGHSDIAPGRKVDPGPLFPWKRLADAGLVPWPKPGELARRLAELNGQLPDVRWFQQQLARHGYLVPQTGELEKDTRDVIGAFQMKYRPARFDGEPDLETAALLLAVPTS
In the case of B1, the “stoichiometry N” value is reported as 2.
